Biological target: the molecule itself
Experiment: cross-linking

B1: untagged human ribonucleotide reductase α expressed in COS-1 cells (monocistronic cassette) (enzyme, UniProt P23921 1-792, looked up)
chain: MHVIKRDGRQERVMFDKITSRIQKLCYGLNMDFVDPAQITMKVIQGLYSGVTTVELDTLAAETAATLTTKHPDYAILAARIAVSNLHKETKKVFSDVMEDLYNYINPHNGKHSPMVAKSTLDIVLANKDRLNSAIIYDRDFSYNYFGFKTLERSYLLKINGKVAERPQHMLMRVSVGIHKEDIDAAIETYNLLSERWFTHASPTLFNAGTNRPQLSSCFLLSMKDDSIEGIYDTLKQCALISKSAGGIGVAVSCIRATGSYIAGTNGNSNGLVPMLRVYNNTARYVDQGGNKRPGAFAIYLEPWHLDIFEFLDLKKNTGKEEQRARDLFFALWIPDLFMKRVETNQDWSLMCPNECPGLDEVWGEEFEKLYASYEKQGRVRKVVKAQQLWYAIIESQTETGTPYMLYKDSCNRKSNQQNLGTIKCSNLCTEIVEYTSKDEVAVCNLASLALNMYVTSEHTYDFKKLAEVTKVVVRNLNKIIDINYYPVPEACLSNKRHRPIGIGVQGLADAFILMRYPFESAEAQLLNKQIFETIYYGALEASCDLAKEQGPYETYEGSPVSKGILQYDMWNVTPTDLWDWKVLKEKIAKYGIRNSLLIAPMPTASTAQILGNNESIEPYTSNIYTRRVLSGEFQIVNPHLLKDLTERGLWHEEMKNQIIACNGSIQSIPEIPDDLKQLYKTVWEISQKTVLKMAAERGAFIDQSQSLNIHIAEPNYGKLTSMHFYGWKQGLKTGMYYLRTRPAANPIQFTLNKEKLKDKEKVSKEEEEKERNTAAMVCSLENRDECLMCGS
  stoichiometry N: 6

From publication PMC3408589 (Chemistry & biology, 2012)
